Patent US20050142568A1 (published 2005)

B2: GST-CPS-6 (other, C. elegans, UniProt Q95NM6 1-308, looked up)
chain: MIGKVAGTAAIAGISFLAGKYSNDDLPIFRNVQSATNVPMNQIQVSEPMTVKPASLNADAMGPSRSAEIMKHGYPGFTNVRTYEDFVLSYDYKTRTAHWVCEHLTPERLKHAEGVDRKLCEFKPDITFPQKFLSQNTDYKCSGFDRGHLAAAGNHRKSQLAVDQTFYLSNMSPQVGRGFNRDKWNDLEMHCRRVAKKMINSYIITGPLYLPKLEGDGKKYIKYQVIGDNNVAVPTHFFKVALFEVTPGKFELESYILPNAVIEDTVEISKFHVPLDAVERSAGLEIFARLDPKSIVKENGAKKGGLLW
notes: GST at the N-terminus as in pGEX vectors; also called CPS-6 GST-fusion protein; not shown: glutathione S-transferase tag encoded by vector pGEX4T-2

How the values were obtained:
Assay in all cases: GST pull-down, 35S-Met protein vs GST fusion; - means no detectable binding (footnote a)
GST-NUC-1 = target: T1, GST-NUC-1 (C. elegans, UniProt Q17778 22-375)
T1 construct: also called NUC-1 GST-fusion protein; not shown: glutathione S-transferase tag encoded by vector pGEX4T-2
T1 sequence (looked up): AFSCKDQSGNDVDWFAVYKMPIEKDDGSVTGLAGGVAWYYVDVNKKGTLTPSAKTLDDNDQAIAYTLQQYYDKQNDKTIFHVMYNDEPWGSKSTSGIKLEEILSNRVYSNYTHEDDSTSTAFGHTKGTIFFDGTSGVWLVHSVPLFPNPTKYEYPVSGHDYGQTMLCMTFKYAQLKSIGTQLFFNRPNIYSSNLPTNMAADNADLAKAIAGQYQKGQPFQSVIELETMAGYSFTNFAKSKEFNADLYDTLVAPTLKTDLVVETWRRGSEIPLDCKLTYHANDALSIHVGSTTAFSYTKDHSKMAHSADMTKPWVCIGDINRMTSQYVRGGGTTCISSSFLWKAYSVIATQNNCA
Experimental: (§1) GST fusion protein pull-down assays were performed as described in J. Parrish, H. Metters, L. Chen, D. Xue, Proc. Natl. Acad. Sci. U.S.A. 97, 11916 (2000). Purified GST or GST-fusion proteins (5 μg each) immobilized on glutathione sepharose beads were incubated with ³⁵S-Methionine labeled proteins at 4° C. for 2 hours. The beads were washed extensively and the bound proteins were resolved on a 12% SDS-PAGE and visualized by autoradiography. [0103] cDNAs corresponding to the ORFs were cloned into the pPD129.36 vector via its Nhe I and Xho I sites or the Xho I site alone. Full-length cDNAs were subcloned into the pGEX4T-2 vector for generating GST fusion proteins and for further protein purification and into the pcDNA3.1 vector for in vitro transcription/translation experiments.
(§2) ^aInteractions were evaluated relative to background binding of ³⁵S-Methionine labeled Luciferase to GST-fusion proteins and ³⁵S-Methionine labeled proteins to GST. “−” indicates no detectable binding, “+” indicates an interaction consistently observed above background levels, and “++” indicates a strong interaction. ^bBecause ³⁵S-Methionine labeled CRN-1 binds GST tightly, it was not possible to evaluate interactions between ³⁵S-CRN-1 and various GST-fusion proteins. ND, not determined.

GST-CRN-3 = target: T2, GST-CRN-3 (C. elegans, UniProt G5EBX6 1-876)
T2 construct: also called CRN-3 GST-fusion protein; not shown: glutathione S-transferase tag encoded by vector pGEX4T-2
T2 sequence: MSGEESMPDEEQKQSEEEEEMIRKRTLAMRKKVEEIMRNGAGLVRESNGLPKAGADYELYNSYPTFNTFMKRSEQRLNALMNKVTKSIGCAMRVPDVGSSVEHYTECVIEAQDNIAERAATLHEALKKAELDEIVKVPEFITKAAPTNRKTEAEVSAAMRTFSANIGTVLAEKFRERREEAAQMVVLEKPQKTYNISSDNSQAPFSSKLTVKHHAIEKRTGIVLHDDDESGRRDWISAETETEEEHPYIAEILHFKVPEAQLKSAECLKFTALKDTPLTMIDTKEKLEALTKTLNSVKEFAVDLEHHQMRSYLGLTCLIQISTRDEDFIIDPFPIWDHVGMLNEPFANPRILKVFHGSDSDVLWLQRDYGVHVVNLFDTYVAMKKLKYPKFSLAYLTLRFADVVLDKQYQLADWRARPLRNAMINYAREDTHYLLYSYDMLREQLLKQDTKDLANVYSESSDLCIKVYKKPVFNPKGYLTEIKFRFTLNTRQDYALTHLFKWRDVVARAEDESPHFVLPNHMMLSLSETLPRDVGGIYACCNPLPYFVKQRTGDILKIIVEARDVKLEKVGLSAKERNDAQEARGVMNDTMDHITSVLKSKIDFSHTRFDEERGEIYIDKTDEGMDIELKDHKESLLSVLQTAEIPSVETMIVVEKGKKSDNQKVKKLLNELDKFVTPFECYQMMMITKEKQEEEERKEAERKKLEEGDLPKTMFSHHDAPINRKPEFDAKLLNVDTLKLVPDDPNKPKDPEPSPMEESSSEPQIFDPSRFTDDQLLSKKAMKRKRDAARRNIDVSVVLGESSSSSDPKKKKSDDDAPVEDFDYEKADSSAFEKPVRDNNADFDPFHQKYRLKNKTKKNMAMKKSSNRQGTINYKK
Experimental: as §1, §2

GST-CPS-6 = target: B2
Experimental: as §1, §2

GST-CRN-6 = target: T3, GST-CRN-6 (C. elegans, UniProt P08515 1-218 = GST; P34508 1-373)
T3 construct: Two crn-6 cDNAs (700 bp and 1.1 kb) were isolated; the longer one made the GST fusion; also called CRN-6 GST-fusion protein
Experimental: as §1, §2

[1] = target: T4, ^35S-Methionine labeled CRN-3 (C. elegans, UniProt G5EBX6 1-876)
T4 sequence: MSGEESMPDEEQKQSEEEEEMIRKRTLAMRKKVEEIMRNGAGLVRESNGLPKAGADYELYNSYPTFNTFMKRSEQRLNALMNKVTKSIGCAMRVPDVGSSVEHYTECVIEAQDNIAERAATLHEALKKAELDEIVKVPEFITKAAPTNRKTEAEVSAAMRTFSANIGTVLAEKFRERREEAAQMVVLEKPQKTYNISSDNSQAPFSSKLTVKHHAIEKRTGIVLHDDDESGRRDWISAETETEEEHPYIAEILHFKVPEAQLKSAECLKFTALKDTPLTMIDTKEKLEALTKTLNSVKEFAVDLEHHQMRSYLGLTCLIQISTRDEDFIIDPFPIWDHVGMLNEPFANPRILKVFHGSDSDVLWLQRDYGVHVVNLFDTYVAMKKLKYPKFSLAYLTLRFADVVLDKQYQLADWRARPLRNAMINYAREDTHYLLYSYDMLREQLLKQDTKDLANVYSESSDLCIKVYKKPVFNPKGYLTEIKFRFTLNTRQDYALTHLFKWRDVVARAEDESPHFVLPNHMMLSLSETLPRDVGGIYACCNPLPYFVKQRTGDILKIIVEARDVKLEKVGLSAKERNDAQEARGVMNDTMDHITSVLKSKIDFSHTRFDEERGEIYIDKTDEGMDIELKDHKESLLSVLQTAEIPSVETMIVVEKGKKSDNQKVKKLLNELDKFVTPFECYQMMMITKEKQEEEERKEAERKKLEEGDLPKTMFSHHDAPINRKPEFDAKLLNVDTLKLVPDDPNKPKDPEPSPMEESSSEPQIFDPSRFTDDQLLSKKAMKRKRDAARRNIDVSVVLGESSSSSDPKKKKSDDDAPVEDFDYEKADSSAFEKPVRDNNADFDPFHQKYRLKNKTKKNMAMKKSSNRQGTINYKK
Experimental: as §1, §2

[2] = target: T5, ^35S-Methionine labeled NUC-1 (C. elegans, UniProt Q17778 22-375, 35S-methionine labelled)
T5 sequence (looked up): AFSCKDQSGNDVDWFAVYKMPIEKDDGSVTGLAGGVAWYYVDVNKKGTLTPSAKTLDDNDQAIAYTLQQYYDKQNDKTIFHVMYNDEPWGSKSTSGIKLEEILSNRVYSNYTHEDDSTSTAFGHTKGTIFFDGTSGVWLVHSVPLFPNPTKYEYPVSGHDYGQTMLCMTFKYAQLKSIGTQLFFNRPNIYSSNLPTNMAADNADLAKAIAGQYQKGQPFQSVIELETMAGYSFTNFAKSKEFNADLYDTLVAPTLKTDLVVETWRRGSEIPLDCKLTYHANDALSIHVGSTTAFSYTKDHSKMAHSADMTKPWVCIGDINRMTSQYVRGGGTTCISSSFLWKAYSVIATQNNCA
Experimental: as §1, §2

[3] = target: T6, ^35S-Methionine labeled CRN-6 (C. elegans, UniProt P34508-2 18-373, limits assumed, 35S-methionine labelled)
T6 sequence (looked up): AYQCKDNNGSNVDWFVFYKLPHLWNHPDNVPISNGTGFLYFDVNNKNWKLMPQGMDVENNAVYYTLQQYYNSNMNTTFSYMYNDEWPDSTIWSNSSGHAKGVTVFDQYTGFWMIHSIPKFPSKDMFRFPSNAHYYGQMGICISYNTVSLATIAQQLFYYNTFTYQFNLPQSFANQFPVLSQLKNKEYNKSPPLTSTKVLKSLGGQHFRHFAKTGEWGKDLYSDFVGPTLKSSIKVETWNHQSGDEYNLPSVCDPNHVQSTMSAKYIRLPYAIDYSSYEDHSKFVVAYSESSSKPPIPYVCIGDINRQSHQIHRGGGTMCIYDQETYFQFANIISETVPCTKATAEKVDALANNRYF
Experimental: as §1, §2

Measured: binding result

B1: full-length ^35S-methionine labeled CPS-6 (enzyme, C. elegans, UniProt Q95NM6 1-308, looked up)
chain: MIGKVAGTAAIAGISFLAGKYSNDDLPIFRNVQSATNVPMNQIQVSEPMTVKPASLNADAMGPSRSAEIMKHGYPGFTNVRTYEDFVLSYDYKTRTAHWVCEHLTPERLKHAEGVDRKLCEFKPDITFPQKFLSQNTDYKCSGFDRGHLAAAGNHRKSQLAVDQTFYLSNMSPQVGRGFNRDKWNDLEMHCRRVAKKMINSYIITGPLYLPKLEGDGKKYIKYQVIGDNNVAVPTHFFKVALFEVTPGKFELESYILPNAVIEDTVEISKFHVPLDAVERSAGLEIFARLDPKSIVKENGAKKGGLLW
modifications: 35S-methionine labelled
notes: also called ^35S-CPS-6
no binding: GST-NUC-1 | GST-CRN-3 | GST-CPS-6 | GST-CRN-6

B2
no binding: [1] | [2] | [3]

B3: GST-CRN-4 (other, C. elegans, UniProt Q10905 1-298, looked up)
chain: MAYQHCPFDTLLILDFETTSDAANQDYPCEVIQFAIVAYDVPNDKIREDISFNKYVKPVLNRTLTKNCVDFTGIPQRSIDTADTFDVVYEQFQQWLITLGLEEGKFAFVCDSRQDLWRIAQYQMKLSNIQMPAFFRQYINLYKIFTNEMDRMGPKELSATTNIGKMNEYYDLPTIGRAHDAMDDCLNIATILQRMINMGAKVTVNELLTCCASWRRQPLVYNKEWRSSFMDAGKIFERVLPLVVTTIRAGDFRLEMYGVCRYCRKGMDVCGTSHQQTPHDLYKNEEDPIHFAKIAGYY
notes: also called CRN-4 GST-fusion protein; not shown: glutathione S-transferase tag encoded by vector pGEX4T-2
no binding: [1] | [3]
